Paper PMC4500839 (Nature communications, 2015)

Target: gp120BaL (HIV-1 group M subtype B, isolate BaL …, UniProt Q6TAP7, strain)
Assay: ELISA

B1: PGT128 (antibody, V domains shown)
VH: QPQLQESGPTLVEASETLSLTCAVSGDSTAACNSFWGWVRQPPGKGLEWVGSLSHCASYWNRGWTYHNPSLKSRLTLALDTPKNLVFLKLNSVTAADTATYYCARFGGEVLRYTDWPKPAWVDLWGRGTLVTVSS
VL: QSALTQPPSASGSPGQSITISCTGTSNNFVSWYQQHAGKAPKLVIYDVNKRPSGVPDRFSGSKSGNTASLTVSGLQTDDEAVYYCGSLVGNWDVIFGGGTKLTVL
binding result: binds
